Laboratory results published in the supplement of paper PMC11246515.
± gives the standard deviation of the averaged measurements.

Assay: total protein half-life in vivo (active degradation + dilution); higher = more stable protein
[1] = E. coli NCM3722 delta-clpP delta-lon delta-hslV, growth: N-lim chemostat, doubling time 6 h
[2] = E. coli NCM3722 delta-clpP, growth: N-lim chemostat, doubling time 6 h
[3] = E. coli NCM3722 delta-hslV, growth: N-lim chemostat, doubling time 6 h
[4] = E. coli NCM3722 delta-lon, growth: N-lim chemostat, doubling time 6 h
[5] = E. coli NCM3722 delta-smpB, growth: N-lim chemostat, doubling time 6 h
[6] = wild type E. coli NCM3722, growth: C-lim chemostat, doubling time 3 h
[7] = wild type E. coli NCM3722, growth: C-lim chemostat, doubling time 6 h
[8] = wild type E. coli NCM3722, growth: N-lim chemostat, doubling time 6 h
[9] = wild type E. coli NCM3722, growth: N-lim chemostat, doubling time 12 h
[10] = wild type E. coli NCM3722, growth: P-lim chemostat, doubling time 6 h
[11] = wild type E. coli NCM3722, growth: P-lim chemostat, doubling time 12 h
[12] = wild type E. coli NCM3722, growth: C-lim chemostat, doubling time 12 h

Row | Sequence | total protein half-life in vivo [1] [h] | total protein half-life in vivo [2] [h] | total protein half-life in vivo [3] [h] | total protein half-life in vivo [4] [h] | total protein half-life in vivo [5] [h] | total protein half-life in vivo [6] [h] | total protein half-life in vivo [7] [h] | total protein half-life in vivo [8] [h] | total protein half-life in vivo [9] [h] | total protein half-life in vivo [10] [h] | total protein half-life in vivo [11] [h] | total protein half-life in vivo [12] [h]
1 | MELKDYYAIMGVKPTDDLKTIKTAYRRLARKYHPDVSKEPDAEARFKEVAEAWEVLSDEQRRAEYDQMWQHRNDPQFNRQFHHGDGQSFNAEDFDDIFSSIFGQHARQSRQRPATRGHDIEIEVAVFLEETLTEHKRTISYNLPVYNAFGMIEQEIPKTLNVKIPAGVGNGQRIRLKGQGTPGENGGPNGDLWLVIHIAPHPLFDIVGQDLEIVVPVSPWEAALGAKVTVPTLKESILLTIPPGSQAGQRLRVKGKGLVSKKQTGDLYAVLKIVMPPKPDENTAALWQQLADAQSSFDPRKDWGKA | 6.73 ± 1.4 | 5.61 ± 0.13 | 5.26 ± 0.1 | 6.28 ± 0.45 | 4.99 ± 0.26 | 3.32 ± 0.26 | 5.86 ± 1.2 | 4.87 ± 0.37 | 9.91 ± 2.2 | 5.76 ± 0.35 | 12.8 ± 0.6 | –
2 | MASTARSLRYALAILTTSLVTPSVWAHAHLTHQYPAANAQVTAAPQAITLNFSEGVETGFSGAKITGPKNENIKTLPAKRNEQDQKQLIVPLADSLKPGTYTVDWHVVSVDGHKTKGHYTFSVK [P0AA57] | 5.53 | – | > 8 | 5.82 | 4.84 | 3.06 | 5.46 ± 0.25 | 5.82 ± 0.43 | 9.82 ± 0.3 | 4.82 | 9.37 ± 0.95 | 9.96 ± 0.3
3 | MKTKIPDAVLAAEVSRRGLVKTTAIGGLAMASSALTLPFSRIAHAVDSAIPTKSDEKVIWSACTVNCGSRCPLRMHVVDGEIKYVETDNTGDDNYDGLHQVRACLRGRSMRRRVYNPDRLKYPMKRVGARGEGKFERISWEEAYDIIATNMQRLIKEYGNESIYLNYGTGTLGGTMTRSWPPGNTLVARLMNCCGGYLNHYGDYSSAQIAEGLNYTYGGWADGNSPSDIENSKLVVLFGNNPGETRMSGGGVTYYLEQARQKSNARMIIIDPRYTDTGAGREDEWIPIRPGTDAALVNGLAYVMITENLVDQAFLDKYCVGYDEKTLPASAPKNGHYKAYILGEGPDGVAKTPEWASQITGVPADKIIKLAREIGSTKPAFISQGWGPQRHANGEIATRAISMLAILTGNVGINGGNSGAREGSYSLPFVRMPTLENPIQTSISMFMWTDAIERGPEMTALRDGVRGKDKLDVPIKMIWNYAGNCLINQHSEINRTHEILQDDKKCELIVVIDCHMTSSAKYADILLPDCTASEQMDFALDASCGNMSYVIFNDQVIKPRFECKTIYEMTSELAKRLGVEQQFTEGRTQEEWMRHLYAQSREAIPELPTFEEFRKQGIFKKRDPQGHHVAYKAFREDPQANPLTTPSGKIEIYSQALADIAATWELPEGDVIDPLPIYTPGFESYQDPLNKQYPLQLTGFHYKSRVHSTYGNVDVLKAACRQEMWINPLDAQKRGIHNGDKVRIFNDRGEVHIEAKVTPRMMPGVVALGEGAWYDPDAKRVDKGGCINVLTTQRPSPLAKGNPSHTNLVQVEKV | 5.175 ± 0.011 | – | – | – | – | – | 5.91 | – | 6.94 | – | – | –
4 | MSRMAEQQLYIHGGYTSATSGRTFETINPANGNVLATVQAAGREDVDRAVKSAQQGQKIWASMTAMERSRILRRAVDILRERNDELAKLETLDTGKAYSETSTVDIVTGADVLEYYAGLIPALEGSQIPLRETSFVYTRREPLGVVAGIGAWNYPIQIALWKSAPALAAGNAMIFKPSEVTPLTALKLAEIYSEAGLPDGVFNVLPGVGAETGQYLTEHPGIAKVSFTGGVASGKKVMANSAASSLKEVTMELGGKSPLIVFDDADLDLAADIAMMANFFSSGQVCTNGTRVFVPAKCKAAFEQKILARVERIRAGDVFDPQTNFGPLVSFPHRDNVLRYIAKGKEEGARVLCGGDVLKGDGFDNGAWVAPTVFTDCSDDMTIVREEIFGPVMSILTYESEDEVIRRANDTDYGLAAGIVTADLNRAHRVIHQLEAGICWINTWGESPAEMPVGGYKHSGIGRENGVMTLQSYTQVKSIQVEMAKFQSIF | 5.11 ± 0.25 | 5.45 ± 1.3 | 5.06 ± 0.11 | 5.28 ± 0.61 | 4.486 ± 0.038 | – | 5.21 ± 0.24 | 4.37 ± 0.14 | 7.63 ± 0.23 | 6 ± 0.24 | 11.7 ± 0.46 | 11.1 ± 0.13
5 | MPEQYRYTLPVKAGEQRLLGELTGAACATLVAEIAERHAGPVVLIAPDMQNALRLHDEISQFTDQMVMNLADWETLPYDSFSPHQDIISSRLSTLYQLPTMQRGVLIVPVNTLMQRVCPHSFLHGHALVMKKGQRLSRDALRTQLDSAGYRHVDQVMEHGEYATRGALLDLFPMGSELPYRLDFFDDEIDSLRVFDVDSQRTLEEVEAINLLPAHEFPTDKAAIELFRSQWRDTFEVKRDPEHIYQQVSKGTLPAGIEYWQPLFFSEPLPPLFSYFPANTLLVNTGDLETSAERFQADTLARFENRGVDPMRPLLPPQSLWLRVDELFSELKNWPRVQLKTEHLPTKAANANLGFQKLPDLAVQAQQKAPLDALRKFLETFDGPVVFSVESEGRREALGELLARIKIAPQRIMRLDEASDRGRYLMIGAAEHGFVDTVRNLALICESDLLGERVARRRQDSRRTINPDTLIRNLAELHIGQPVVHLEHGVGRYAGMTTLEAGGITGEYLMLTYANDAKLYVPVSSLHLISRYAGGAEENAPLHKLGGDAWSRARQKAAEKVRDVAAELLDIYAQRAAKEGFAFKHDREQYQLFCDSFPFETTPDQAQAINAVLSDMCQPLAMDRLVCGDVGFGKTEVAMRAAFLAVDNHKQVAVLVPTTLLAQQHYDNFRDRFANWPVRIEMISRFRSAKEQTQILAEVAEGKIDILIGTHKLLQSDVKFKDLGLLIVDEEHRFGVRHKERIKAMRANVDILTLTATPIPRTLNMAMSGMRDLSIIATPPARRLAVKTFVREYDSMVVREAILREILRGGQVYYLYNDVENIQKAAERLAELVPEARIAIGHGQMRERELERVMNDFHHQRFNVLVCTTIIETGIDIPTANTIIIERADHFGLAQLHQLRGRVGRSHHQAYAWLLTPHPKAMTTDAQKRLEAIASLEDLGAGFALATHDLEIRGAGELLGEEQSGSMETIGFSLYMELLENAVDALKAGREPSLEDLTSQQTEVELRMPSLLPDDFIPDVNTRLSFYKRIASAKTENELEEIKVELIDRFGLLPDPARTLLDIARLRQQAQKLGIRKLEGNEKGGVIEFAEKNHVNPAWLIGLLQKQPQHYRLDGPTRLKFIQDLSERKTRIEWVRQFMRELEENAIA | 5.59 ± 0.3 | 5.07 ± 0.12 | 5.1 ± 0.13 | 5.12 ± 0.13 | 5.021 ± 0.009 | 3.07 ± 0.11 | 6.0491 ± 0.00051 | 4.9912 ± 0.001 | 8.76 ± 0.27 | 5.92 ± 0.57 | 11.3 ± 0.21 | 11.4 ± 0.52
6 | MMKRNILAVIVPALLVAGTANAAEIYNKDGNKVDLYGKAVGLHYFSKGNGENSYGGNGDMTYARLGFKGETQINSDLTGYGQWEYNFQGNNSEGADAQTGNKTRLAFAGLKYADVGSFDYGRNYGVVYDALGYTDMLPEFGGDTAYSDDFFVGRVGGVATYRNSNFFGLVDGLNFAVQYLGKNERDTARRSNGDGVGGSISYEYEGFGIVGAYGAADRTNLQEAQPLGNGKKAEQWATGLKYDANNIYLAANYGETRNATPITNKFTNTSGFANKTQDVLLVAQYQFDFGLRPSIAYTKSKAKDVEGIGDVDLVNYFEVGATYYFNKNMSTYVDYIINQIDSDNKLGVGSDDTVAVGIVYQF | 5.54 ± 0.65 | 6.23 ± 0.86 | 5.98 ± 0.073 | 6.91 ± 0.67 | 5.865 ± 0.041 | 3.19 ± 0.046 | 6.83 ± 0.66 | 5.95 ± 0.26 | 10.9 ± 0.82 | 6.15 ± 0.23 | – | 11.12 ± 0.049
